The results in this text go back to patent US20200123252A1 (LAMKAP BIO BETA, published 2020).

For orientation: EC50 means the concentration at which the effect is half-maximal. A low value points to a more potent agent. What is called IC50 is the concentration at which inhibition is half-maximal. Low readings indicate inhibition by little substance, high ones a need for much substance. By EC50 (read off the curve) is commonly meant the concentration that produces a half-maximal response.

The target in test [1] is T1, human CEACAM5 on MKN-45 cells (human, UniProt P06731 35-685).
T1 construct: Endogenous CEACAM5 on MKN-45 gastric adenocarcinoma cells, which also carry CD47 (and CEACAM6); also called CD66e; MKN45 CEA+ cancer cells
T1 sequence: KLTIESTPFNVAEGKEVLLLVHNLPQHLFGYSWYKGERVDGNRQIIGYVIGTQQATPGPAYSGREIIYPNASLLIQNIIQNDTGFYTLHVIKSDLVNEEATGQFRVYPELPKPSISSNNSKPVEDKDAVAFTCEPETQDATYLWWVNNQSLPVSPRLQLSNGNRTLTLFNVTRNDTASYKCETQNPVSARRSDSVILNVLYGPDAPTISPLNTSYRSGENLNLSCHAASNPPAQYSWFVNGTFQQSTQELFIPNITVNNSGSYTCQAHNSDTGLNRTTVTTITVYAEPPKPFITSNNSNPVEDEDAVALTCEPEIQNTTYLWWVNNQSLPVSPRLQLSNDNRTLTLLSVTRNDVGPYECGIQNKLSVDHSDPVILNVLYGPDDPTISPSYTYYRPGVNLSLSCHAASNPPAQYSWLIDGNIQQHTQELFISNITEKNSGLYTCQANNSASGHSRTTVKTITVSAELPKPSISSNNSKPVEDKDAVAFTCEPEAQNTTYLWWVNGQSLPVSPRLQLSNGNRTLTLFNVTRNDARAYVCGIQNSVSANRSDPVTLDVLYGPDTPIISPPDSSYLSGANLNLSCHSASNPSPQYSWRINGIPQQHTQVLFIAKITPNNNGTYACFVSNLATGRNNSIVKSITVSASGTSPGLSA
Description: flow cytometry on MKN45 CEA+ cells (carry CEACAM5 and CD47). In general terms: In flow cytometry, cells or beads pass a laser one at a time.

Test [2] concerns the target T2, human CD47 on MKN45 cells (human, UniProt Q08722 19-323).
T2 construct: whole, on cells; also called IAP
Description: inhibition of SIRPα-mouseFc binding to CD47 on MKN45 cells, imaging (CX5). An excerpt:
The detection of bound SIRPα cell-based assay monitoring the interaction of soluble SIRPα with human CD47 expressed at the surface of MKN45 is used for the detection of the blocking activity. Dose-response experiments with bispecific antibodies according to the invention allow determination of an IC50 value.
MKN45 cancer cells, expressing both CD47 and CEACAM5, are stained with CFSE violet to allow the imaging system (CX5) to detect the cells. Briefly, 3,000 stained MKN45 cells per well are seeded in a 384 optical well plate (Costar) and incubated for 50 minutes with increased concentrations of bispecific antibodies of the invention (1.9 pM to 333 nM, in quadruplicates). Then, a fixe concentration of SIRPα-mouseFc premixed with anti-mouse IgG-Fc AF647 coupled antibody (Jackson Immunoresearch diluted 1:2000) is added at 50 ng/mL final. After an incubation of 3H30 plates are acquired with the imaging system (CX5, Thermofisher) and fluorescence signals emitted by the detected bound SIRPα is recorded by the software dedicated to the imaging system. Fluorescence signals are plotted according to the dose range tested and IC50 are calculated by the software (Prism, Graphpad).

For test [3], the target named is T1, human CEACAM5 on MKN-45 cells. The test can be described thus: binding to MKN-45 cells (MFI), without shed CEA.
In test [4] the target is T3, shed CEA (soluble CEA) (human, UniProt P06731 35-685, limits assumed).
T3 sequence (looked up): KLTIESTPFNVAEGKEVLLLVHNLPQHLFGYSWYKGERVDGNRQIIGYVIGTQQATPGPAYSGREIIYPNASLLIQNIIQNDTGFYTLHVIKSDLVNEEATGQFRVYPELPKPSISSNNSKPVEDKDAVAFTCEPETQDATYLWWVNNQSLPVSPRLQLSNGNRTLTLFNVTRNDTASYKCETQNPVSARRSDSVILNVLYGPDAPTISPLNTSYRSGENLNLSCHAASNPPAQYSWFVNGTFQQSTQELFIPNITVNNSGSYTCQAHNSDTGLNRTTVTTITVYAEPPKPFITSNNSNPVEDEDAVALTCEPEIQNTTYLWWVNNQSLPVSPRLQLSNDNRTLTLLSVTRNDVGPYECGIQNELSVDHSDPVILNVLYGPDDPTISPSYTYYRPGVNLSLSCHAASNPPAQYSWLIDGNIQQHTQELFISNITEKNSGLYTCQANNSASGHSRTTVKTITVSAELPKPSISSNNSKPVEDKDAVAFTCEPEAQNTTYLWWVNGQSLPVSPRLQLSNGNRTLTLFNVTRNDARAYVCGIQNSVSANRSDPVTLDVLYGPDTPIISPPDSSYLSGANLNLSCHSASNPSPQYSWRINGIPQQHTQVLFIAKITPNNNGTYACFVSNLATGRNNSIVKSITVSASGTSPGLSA
Description: cell-based or functional assay.

The target of test [5] is T1, human CEACAM5 on MKN-45 cells. The test can be described thus: FACS binding to MKN-45 cells, which express CD47, CEACAM5 and CEACAM6.
In test [6] the target is T4, human CEACAM6 (human, UniProt P40199 35-320).
T4 construct: also called CD66c; biotinylated recombinant human CEACAM6
T4 sequence (looked up): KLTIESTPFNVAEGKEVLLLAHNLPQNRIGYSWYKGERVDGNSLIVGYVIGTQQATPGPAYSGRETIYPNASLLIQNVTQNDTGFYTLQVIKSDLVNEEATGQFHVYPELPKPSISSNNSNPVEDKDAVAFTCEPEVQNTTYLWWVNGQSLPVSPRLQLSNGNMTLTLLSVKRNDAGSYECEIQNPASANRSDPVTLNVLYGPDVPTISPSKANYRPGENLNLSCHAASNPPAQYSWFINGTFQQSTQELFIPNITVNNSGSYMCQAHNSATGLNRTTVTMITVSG
Description: statement in the legend of FIG. 21A (FACS on MKN-45 cells).

For test [7], the target named is T1, human CEACAM5 on MKN-45 cells. Description: binding to MKN-45 cells (MFI), in the presence of 200 ng/mL shed CEA.

Some results are limits rather than exact numbers.

B1: K2AC22 CEA×CD47 bispecific antibody (bispecific antibody, human IgG1, kappa, lambda)
heavy: not shown
light 1: QSVLTQPPSVSAAPGQKVTISCSGSSSNIANGIVSWYQQLPGTAPKLLIYFDNLRPSGIPDRFSGSKSGTSATLGITGLQTGDEADYYCGTWDFSYGIVFGGGTKLTVLGQPKAAPSVTLFPPSSEELQANKATLVCLISDFYPGAVTVAWKADSSPVKAGVETTTPSKQSNNKYAASSYLSLTPEQWKSHRSYSCQVTHEGSTVEKTVAPTECS
light 2: not shown
notes: κλ body, human IgG1, common heavy chain; CEACAM5 arm light chain 1G6 (AC22)
In test [1], B1 came in with an EC50 of 16.5 nM. Moreover, in test [2], the half-maximal inhibitory concentration (IC50) was 0.37 nM. In addition, the “EC50 (read off the curve)” value in test [3] is around 0.5 mg/L; in test [5], around 1 mg/L; in test [7] it was around 0.5 mg/L. In addition, in test [4], the “shift of EC50 of the phagocytosis index curve of MKN-45 cells by 200 ng/mL shed CEA” value is below 4 fold. Also, in test [6], the binding result is given as “no binding”.
